Substrate: O=[N+]([O-])O
Test: cells, lysate or membranes
Set-up: species or system Nicotiana tabacum
Conditions: whole roots of 2-day N-starved tobacco plants (wild-type K326 background subtracted); 5–500 μM nitrate; labelled compound (15N)

B1: NtNRT1.1B (Nicotiana tabacum) (protein)
chain: MALPETQQDSKALPDAWDYKGRPALRSSSGGWASGAMILGVEAVERLTTLGIAVNLVTYLTGTMHLGNATAANNVTNFLGTSFMLTLFGGFVADTFLGRYLTIGIFATVQAMGVTILTISTIIPSLRPPKCEQVGSSSCIPANSKQLMVLYIALYMTALGTGGLKSSVSGFGTDQFDDADKKEKGQMIKFFDWFFFFINVGSLGAVTVLVYIQDNLGREWGYGICACAIVIGLVVFLSGTRKYRFKKLVGSPLTQIASVIVAAWKKRHLELLSDSSLLFEIDDIFGEGNKKNKQKLPHSKEYRFLDKAAIKEDHDLESNGTNVVINKWKLATLTDVEEVKLLIRMLPTWATTIMFWTVYAQMTTFSVSQATTMDRHIGTFEIPPASLTVFFVGSILLTVIFYDRVIVPICRRFMNKPHGLTPLQRIFTGLVLSILAMIAAALTEVKRLKVAHLHGLTNDANATIPLSVFWLVPQFLLVGAGEAFTYIGQLDFFLRECPKGMKTMSTGLFLSTLALGFFFSSILVTIVHVVTGTTNPWLADNLNQGRLYDFYWLLAILSVLNLMFFLYFSRKYVYKEKRLAEMGIELEDDGPVCH
notes: full-length untagged ORF (1,785 bp, 594 residues) under CaMV 35S promoter, overexpressed in tobacco K326 (line L1); formerly named NtNRT1.2 (Liu et al., 2018)
Km: 29.05 ± 3.34 µM

Source: article PMC10011135, “Molecular identification and physiological functional analysis of NtNRT1.1B that mediated nitrate long-distance transport and improved plant growth when overexpressed in tobacco” (Frontiers in Plant Science, 2023)
